B1: ZBTB22 (parent)
chain: FSSSSQEAFAASAVGSGERRGGGP

Variants of: B1
Test: protein stability index of a GFP-peptide fusion (GPS, HEK-293T) (PSI 1-6); higher = more stable
Settings: c terminus: a fixed tail appended
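Further: lentivirally expressed fusions sorted by FACS into six bins by GFP to DsRed ratio, PSI derived from sequencing read proportions per bin multiplied by bin number.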

Variant	protein stability index
FSSSSQEAFAASAVVSGERRGGGP [G15V]	2.53
FSSSSQEAFAASAVCSGERRGGGP [G15C]	2.94
FSSSSQEAFAASAVHSGERRGGGP [G15H]	3.24
FSSSSQEAFAASAVFSGERRGGGP [G15F]	2.02
FSSSSQEAFAASAVPSGERRGGGP [G15P]	3.58
FSSSSQEAFAASAVWSGERRGGGP [G15W]	2.72
FSSSSQEAFAASAVNSGERRGGGP [G15N]	3.43
FSSSSQEAFAASAVKSGERRGGGP [G15K]	3.41
FSSSPQEAFAASAVGSGERRGGGP [S5P]	4.56
FSSSRQEAFAASAVGSGERRGGGP [S5R]	3.7
FSSSNQEAFAASAVGSGERRGGGP [S5N]	3.61
FSISSQEAFAASAVGSGERRGGGP [S3I]	4.37
FSWSSQEAFAASAVGSGERRGGGP [S3W]	2.86
FSRSSQEAFAASAVGSGERRGGGP [S3R]	3.54
FSQSSQEAFAASAVGSGERRGGGP [S3Q]	4.07
FSSSSQEAFAASAVGSGERRVGGP [G21V]	2.84
FSSSSQEAFAASAVGSGERRPGGP [G21P]	3.69
FSSSSQEAFAASAVGSGERRFGGP [G21F]	3.22
FSSSSQEAFAASAVGSGERRNGGP [G21N]	3.45
PSSSSQEAFAASAVGSGERRGGGP [F1P]	5.33
ESSSSQEAFAASAVGSGERRGGGP [F1E]	5.43
HSSSSQEAFAASAVGSGERRGGGP [F1H]	4.75
YSSSSQEAFAASAVGSGERRGGGP [F1Y]	3.48
DSSSSQEAFAASAVGSGERRGGGP [F1D]	5.7

Variant	protein stability index
FSSSSQEAFAASASGSGERRGGGP [V14S]	3.25
FSSSSQEAFAASAHGSGERRGGGP [V14H]	3.86
FSSSSQEAFAASAKGSGERRGGGP [V14K]	3.33
FSSSSQEAFAASAVGSGERRGGEP [G23E]	3.53
FSSSSQEAFAASAVGSGEVRGGGP [R19V]	3.46
FSSSSQEAFAASAVGSGEGRGGGP [R19G]	3.82
FSSSSQEAFAASAVGSGEKRGGGP [R19K]	3.41
FSSSSQEAFAASAVGSGEYRGGGP [R19Y]	3.32
FSSSSQEAFAASAVGSGEPRGGGP [R19P]	3.36
FSSSSPEAFAASAVGSGERRGGGP [Q6P]	3.03
FSSSSQEAFTASAVGSGERRGGGP [A10T]	3.26
FSSSSQEAFLASAVGSGERRGGGP [A10L]	3.26
FSSSSQEAFVASAVGSGERRGGGP [A10V]	2.58
FSSSSQEAFPASAVGSGERRGGGP [A10P]	3.89
FSSSSQELFAASAVGSGERRGGGP [A8L]	2.25
FSSSSQGAFAASAVGSGERRGGGP [E7G]	3.12
FSSSSQPAFAASAVGSGERRGGGP [E7P]	3.25
FSSSSQEAFAASAVGSEERRGGGP [G17E]	3.52
FSSSSQEAFAASAVGSVERRGGGP [G17V]	3.48
FSSSSQEAFAASAVGSKERRGGGP [G17K]	2.63
FSSSSQEAFAASAVGSHERRGGGP [G17H]	3.62
FSSSSQEAFAASAVGSYERRGGGP [G17Y]	3.45
FSSSSQEAFAASAVGSNERRGGGP [G17N]	3.28
FSSPSQEAFAASAVGSGERRGGGP [S4P]	4.25

Variant	protein stability index
FSSRSQEAFAASAVGSGERRGGGP [S4R]	2.57
FSSWSQEAFAASAVGSGERRGGGP [S4W]	1.68
FSSMSQEAFAASAVGSGERRGGGP [S4M]	3.36
FSSYSQEAFAASAVGSGERRGGGP [S4Y]	3.74
FSSSSQEAFAASAVGSGERQGGGP [R20Q]	3.71
FSSSSQEAFAASAVGSGERSGGGP [R20S]	3.68
FSSSSQEAFAASAVGSGERTGGGP [R20T]	3.63
FSSSSQEAFAASAVGSGERKGGGP [R20K]	3.37
FSSSSQEAFAGSAVGSGERRGGGP [A11G]	2.86
FSSSSQEAFAMSAVGSGERRGGGP [A11M]	3.4
FSSSSQEAFATSAVGSGERRGGGP [A11T]	3.32
FSSSSQEAFAATAVGSGERRGGGP [S12T]	3.02
FSSSSQEAFAASAVGSGERRGGGW [P24W]	2.22
FSSSSQEAFAASAVGSGERRGGGM [P24M]	2.43
FSSSSQEAFAASAVGSGERRGGGR [P24R]	3.03
FSSSSQEAFAASAVGSGERRGGGS [P24S]	3.41
FSSSSQEAFAASAVGSGERRGGGE [P24E]	3.8
FSSSSQEAFAASIVGSGERRGGGP [A13I]	3.04
FSSSSQEAFAASQVGSGERRGGGP [A13Q]	3.28
FSSSSQEAFAASWVGSGERRGGGP [A13W]	3.02
FSSSSQEAFAASLVGSGERRGGGP [A13L]	3.13
FSSSSQEAFAASAVGSGERRGWGP [G22W]	2.19
FSSSSQEAFAASAVGSGERRGVGP [G22V]	3.33
FSSSSQEAFAASAVGSGERRGSGP [G22S]	3.33

Variant	protein stability index
FSSSSQEAFAASAVGSGERRGNGP [G22N]	3.55
FSSSSQEAFAASAVGSGERRGHGP [G22H]	3.83
FSSSSQEAFAASAVGSGERRGDGP [G22D]	3.11
FRSSSQEAFAASAVGSGERRGGGP [S2R]	4.52
FFSSSQEAFAASAVGSGERRGGGP [S2F]	4.08
FYSSSQEAFAASAVGSGERRGGGP [S2Y]	4.54
FHSSSQEAFAASAVGSGERRGGGP [S2H]	1.77
FSSSSQEAQAASAVGSGERRGGGP [F9Q]	5.09
FSSSSQEANAASAVGSGERRGGGP [F9N]	4.71
FSSSSQEAPAASAVGSGERRGGGP [F9P]	4.98
FSSSSQEAKAASAVGSGERRGGGP [F9K]	5.2
FSSSSQEAFAASAVGQGERRGGGP [S16Q]	2.96
FSSSSQEAFAASAVGMGERRGGGP [S16M]	3.37
FSSSSQEAFAASAVGRGERRGGGP [S16R]	3.35
FSSSSQEAFAASAVGYGERRGGGP [S16Y]	2.96
FSSSSQEAFAASAVGAGERRGGGP [S16A]	3.29
FSSSSQEAFAASAVGSGARRGGGP [E18A]	3.48
FSSSSQEAFAASAVGSGGRRGGGP [E18G]	3.84
FSSSSQEAFAASAVGSGMRRGGGP [E18M]	2.96
FSSSSQEAFAASAVGSGWRRGGGP [E18W]	2.92
FSSSSQEAFAASAVGSGVRRGGGP [E18V]	2.49
FSSSSQEAFAASAVGSGQRRGGGP [E18Q]	3.24
